The assay concerns the target MERS-CoV S trimer (stabilized soluble S2P) (MERS-CoV, strain not named; stand-in …, UniProt K9N5Q8, stabilised). The assay is described as follows: ELISA. The following applies: both partners purified. (An ELISA detects its analyte on a solid surface through an enzyme-linked reagent.)

B1: PW5-5 (antibody, V domains shown)
VH: QVQLVQSGAEVKKPGASVKVSCKTSGYTFTDHYMYWVRQAPGQGLEWMGVINPDAGSVTYAQKFQGRVTMTSDTSTSTVYMELSSLRSEDTAVYYCARDLFFIPAANSFDYWGQGTLVTVSS
VL: EIVLTQSPATLSLSPGERATLSCRASQSVSSYLAWYQQKPGQAPRLLIYDATNRATGIPARFSGSGSGTDFTLTISSLEPEDFAVYYCQHRSNWPRMFTFGQGTKLEIK
notes: also called PW5-5 IgG; IgG PW5-5
Consider B1, for which the binding result was “binds”.

B2: PW5-535 (antibody, V domains shown)
VH: EVRLVESGGGLVQPGGSLRLSCAASGFTFRNYDIHWVRQTTGKGLEWVSAVGTSGDTYYLDSVKGRFTISREDAKKSVYLQMNSLRAGDTAMYYCVRGDASPDNIYYYMDVWGTGTRVIVSS
VL: DIQVTQSPSPLSASVGDRVTITCRASQTIGKYLNWYHQIPGKAPKLLISAASTLHSGVPSRFSGRGSGTDFTLTISSLQPEDFGTYYCQQSYSSPPWTFGQGTKVEIK
B2: the binding result is reported as “binds”.

The values above are taken from PMC10847457 (Cell Discovery, 2024).
